The values below come from patent publication US20260049143A1 (KYMAB, published 2026).

The target in assay [1] is T1, mouse ICOS expressed on CHO cells (mouse, UniProt Q9WVS0 21-141).
T1 construct: the cell-expressed form may differ; also called mICOS; CHO mouse ICOS
T1 sequence: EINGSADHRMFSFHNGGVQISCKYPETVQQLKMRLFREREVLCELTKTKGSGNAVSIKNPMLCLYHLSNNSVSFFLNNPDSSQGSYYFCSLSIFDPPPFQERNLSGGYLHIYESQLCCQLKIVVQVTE
Description: flow cytometry, CHO mouse ICOS cells, anti-human IgG AF647, N=1. As to the method: (§1) CHO-S cells transfected with either human ICOS or mouse ICOS were resuspended in FACS buffer (PBS+1% w/v BSA+0.1% w/v sodium azide) and transferred to a 96-well V-bottom plate (Greiner) at a density of 1×10⁵ cells per well. mAb and mAb² were titrated in FACS buffer, 1 in 3 dilution across 11 points from a starting working concentration of 400 nM. Plates were centrifuged at 300×g for 3 minutes, supernatant discarded and 50 μL mAb or mAb² solution were added to cells and incubated at 4° C. for 1 hour. Cells were washed with 150 μL of PBS and centrifuged at 300×g for 3 minutes, supernatant was discarded and cell pellet resuspended in 150 μL PBS added. This wash step was repeated twice. […] Cells were incubated for 1 hour at 4° C. in the dark. Cells were washed with 150 μL of PBS and centrifuged at 300 g for 3 minutes, supernatant was discarded and cell pellet resuspended in 150 μL PBS added. This wash step was repeated twice. Cells were fixed with 25 μL 4% v/v paraformaldehyde, incubated for 20 minutes at 4° C., cells were pelleted by centrifugation at 300×g and the supernatant discarded. Cells were washed with 150 μL of PBS and centrifuged at 300 g for 3 minutes, supernatant was discarded and cell pellet resuspended in 150 μL PBS added. This wash step was repeated. Pelleted cells were resuspended in 110 μL 1×PBS.

For assay [2], the target named is T1, mouse ICOS expressed on CHO cells. Description: flow cytometry, CHO mouse ICOS cells, anti-human IgG AF647, mean. As to the method: as §1
Background: In flow cytometry, cells or beads pass a laser one at a time.

In assay [3] the target is T2, human ICOS-mFc (Chimerigen) (human, UniProt Q9Y6W8 21-140, limits assumed).
T2 construct: Bought fusion; also called hICOS; recombinant human ICOS protein; not shown: mouse Fc
T2 sequence: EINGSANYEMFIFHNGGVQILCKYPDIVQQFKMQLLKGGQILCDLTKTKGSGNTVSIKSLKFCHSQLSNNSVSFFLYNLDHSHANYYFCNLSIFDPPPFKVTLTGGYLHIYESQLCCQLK
Description: HTRF neutralisation of human B7-H2 binding to human ICOS-mFc, n1. As to the method:
(§2) 5 μl of human ICOS-mFc (Chimerigen) at 20 nM (5 nM final) or 5 μl of mouse ICOS-mFc (Chimerigen) at 4 nM (1 nM final) were added to relevant assay wells. Plate was incubated for 1 hour (hr) at room temperature (RT).
(§3) After incubation, assay was read on Envision plate reader (Perkin Elmer) using a standard HTRF protocol. 620 nm and 665 nm channel values were exported to Microsoft Excel and % Delta-F and % Neutralisation calculations performed. Titration curves and IC50 values [M] were plotted using Graphpad (Prism). IC50 values were calculated by first transforming the data using equation X=Log(X). The transformed data was then fitted using nonlinear regression, using fitting algorithm, log (inhibitor) vs. response-variable slope (four parameters).
In general terms: In TR-FRET formats the signal depends on donor and acceptor labels being close together.

The target in assay [4] is T3, mouse ICOS-mFc (Chimerigen) (mouse, UniProt Q9WVS0 21-141, limits assumed).
T3 construct: Bought fusion; also called mICOS; recombinant mouse ICOS protein; not shown: mouse Fc
T3 sequence: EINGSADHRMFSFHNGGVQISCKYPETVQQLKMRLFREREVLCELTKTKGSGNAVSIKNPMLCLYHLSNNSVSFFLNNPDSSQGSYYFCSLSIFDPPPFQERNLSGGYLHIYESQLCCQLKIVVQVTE
Description: HTRF neutralisation of mouse B7-H2 binding to mouse ICOS-mFc, n1. As to the method: as §2, §3

The target in assay [5] is T4, Biotinylated human ICOS protein (human, UniProt Q9Y6W8 21-140, limits assumed, biotinylated).
T4 sequence: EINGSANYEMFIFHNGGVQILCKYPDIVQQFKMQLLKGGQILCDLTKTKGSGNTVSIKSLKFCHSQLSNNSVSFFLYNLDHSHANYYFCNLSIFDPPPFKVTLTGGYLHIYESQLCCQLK
Description: avidity SPR (ProteOn), biotinylated hICOS on NLC chip; calculated on-rate. As to the method:
(§4) Biotinylated human ICOS protein diluted at 7.5 μg/mL in running buffer (1×HBS-EP+Buffer Technova, cat. No. H8022) was captured on a NLC sensor chip (Bio-Rad, cat No 1765021). The surface was then blocked using biocytin (Sigma Aldrich, cat No B1758) at 1 mg/mL.
(§5) The assay was carried out at 25° C.
(§6) The buffer injection (i.e. 0 nM) was used to double reference the sensorgrams. The analysis was carried out using the equilibrium model inherent to the ProteOn's analysis software for each mAb² construct.

The target of assay [6] is T4, Biotinylated human ICOS protein. Description: avidity SPR (ProteOn), biotinylated hICOS on NLC chip, antibody analyte; apparent KD from equilibrium. As to the method: as §4, §5, §6
The target in assay [7] is T3, mouse ICOS-mFc (Chimerigen). Description: DELFIA ELISA, coated mouse ICOS-mFc, mean (only N=1 kept). As to the method: Recombinant ICOS proteins, human ICOS-mFc or mouse ICOS-mFc (Chimerigen) were diluted in 1×PBS and added to Black Hi-bind plates (Griener) at 1 μg/ml, 50 μl/well. Recombinant PD-L1 proteins, human PD-L1-Flag-His or mouse-His were diluted in 1×PBS and added to Black Hi-bind plates (Griener) at 4 μg/ml, 50 μl/well. The plates were left overnight at 4° C. The next day plates were washed 3× with 300 μl/well of 1×PBS+0.1% Tween and blocked with 200 μl/well of 1×PBS+1% BSA blocking buffer for 1 hr at RT on a plate shaker. Plates were washed 3× with 300 μl/well of 1×PBS+0.1% Tween.
However, human-PD-L1 mAb² antibodies were diluted in 1×PBS+0.1% BSA buffer and diluted 1 in 2 from a starting working concentration of 0.066 μM over an 11 point titration. Titrated antibodies were added to the plates, 50 μl/well and left to incubate for 1 hr at R.T on a plate shaker. Plates were washed 3× with 300 μl/well of 1×PBS+0.1% Tween.
DELFIA® Eu-labelled Anti-human IgG(Perkin-Elmer) was diluted 1:500 in DELFIA Assay buffer (Perkin-Elmer) and added to the assay plate (50 μl/well), left to incubate for 1 hr at RT on a plate shaker. […] After incubation, assay was read on Envision plate reader (Perkin Elmer), Time-resolved fluorescence (TRF) was measured at 615 nm.
On the technique in general: ELISA stands for enzyme-linked immunosorbent assay.

The target is the same in assay [8]. Description: HTRF neutralisation of mouse B7-H2 binding to mouse ICOS-mFc, n2. As to the method:
as §2, §3

B1: STIM003_457 (bispecific antibody, V domains shown, not shown: a dimerising Fc or GST)
VH: EVQLVESGGGVVRPGGSLRLSCVASGVTFDDYGMSWVRQAPGKGLEWVSGINWNGGDTDYSDSVKGRFTISRDNAKNSLYLQMNSLRAEDTALYYCARDFYGSGSYYHVPFDYWGQGILVTVSS
VL: EIVLTQSPGTLSLSPGERATLSCRASQSVSRSYLAWYQQKRGQAPRLLIYGASSRATGIPDRFSGDGSGTDFTLSISRLEPEDFAVYYCHQYDMSPFTFGPGTKVDIK
notes: mAb^2 IgG1; also called ST1M003_457; STIM003_457 mAb^2
As for B1, the EC50 (usually the midpoint of the concentration-response curve) in assay [1] came to 8.92 nM; in assay [2] it was 10.6 nM. Also, the IC50 (commonly the concentration at which inhibition is half-maximal) in assay [3] is 0.44 nM; in assay [4], 0.087 nM. Also, the kon – broadly, the rate constant with which the complex forms – in assay [5] is 275000 M⁻¹ s⁻¹. In assay [6], the Kd was determined as 0.9 nM.

B2: STIM001_457 (bispecific antibody, V domains shown, not shown: a dimerising Fc or GST)
VH: QVQVVQSGAEVKKPGASVKVSCKASGYTFSTFGITWVRQAPGQGLEWMGWISAYNGDTNYAQNLQGRVIMTTDTSTSTAYMELRSLRSDDTAVYYCARSSGHYYYYGMDVWGQGTTVTVSS
VL: DIVMTQSPLSLPVTPGEPASISCRSSQSLLHSNEYNYLDWYLQKPGQSPQLLIFLGSNRASGVPDRFSGSGSGTDFTLKITRVEAEDVGIYYCMQSLQTPLTFGGGTKVEIK
notes: mAb^2 IgG1; also called STIM001_457 mAb^2
In the case of B2, the results for the EC50 in assay [7], in assay [1] and in assay [2] were 23.6 nM, 5.14 nM and 5.21 nM, respectively. For the same molecule, the values for the IC50 in assay [3], in assay [4] and in assay [8] were 1.1 nM, 3.39 nM and 5.49 nM, respectively. Also, the kon in assay [5] is 37600 M⁻¹ s⁻¹. Further, in assay [6], the Kd came to 9.2 nM.
